B1: ERAD-associated E3 ubiquitin-protein ligase HRD1 (Saccharomyces cerevisiae), Q08109 (parent)
chain: MVPENRRKQLAIFVVVTYLLTFYCVYSATKTSVSFLQVTLKLNEGFNLMVLSIFILLNSTLLWQLLTKLLFGELRLIEHEHIFERLPFTIINTLFMSSLFHERYFFTVAFFGLLLLYLKVFHWILKDRLEALLQSINDSTTMKTLIFSRFSFNLVLLAVVDYQIITRCISSIYTNQKSDIESTSLYLIQVMEFTMLLIDLLNLFLQTCLNFWEFYRSQQSLSNENNHIVHGDPTDENTVESDQSQPVLNDDDDDDDDDRQFTGLEGKFMYEKAIDVFTRFLKTALHLSMLIPFRMPMMLLKDVVWDILALYQSGTSLWKIWRNNKQLDDTLVTVTVEQLQNSANDDNICIICMDELIHSPNQQTWKNKNKKPKRLPCGHILHLSCLKNWMERSQTCPICRLPVFDEKGNVVQTTFTSNSDITTQTTVTDSTGIATDQQGFANEVDLLPTRTTSPDIRIVPTQNIDTLAMRTRSTSTPSPTWYTFPLHKTGDNSVGSSRSAYEFLITNSDEKENGIPVKLTIENHEVNSLHGDGGEQIAKKIVIPDKFIQHI
partner: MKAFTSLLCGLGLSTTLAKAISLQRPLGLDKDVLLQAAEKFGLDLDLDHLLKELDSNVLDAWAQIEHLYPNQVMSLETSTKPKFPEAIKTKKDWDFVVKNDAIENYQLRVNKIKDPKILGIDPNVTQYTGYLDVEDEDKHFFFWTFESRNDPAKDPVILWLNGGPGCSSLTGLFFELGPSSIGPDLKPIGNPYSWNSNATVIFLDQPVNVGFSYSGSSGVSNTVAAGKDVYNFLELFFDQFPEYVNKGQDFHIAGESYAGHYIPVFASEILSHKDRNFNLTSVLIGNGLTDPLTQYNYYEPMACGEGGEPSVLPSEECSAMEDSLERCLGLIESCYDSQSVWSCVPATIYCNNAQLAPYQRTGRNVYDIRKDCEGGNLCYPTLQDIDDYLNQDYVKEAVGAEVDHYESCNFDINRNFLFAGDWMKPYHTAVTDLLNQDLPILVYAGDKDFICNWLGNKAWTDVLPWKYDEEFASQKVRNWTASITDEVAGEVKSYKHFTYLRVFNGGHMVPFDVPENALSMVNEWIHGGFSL

Variants of: B1
Details: with cbpy_yeast PRC1, P00729

Variant | effect of a mutation on the interaction
MVPENRRKQLAIFVVVTYLLTFYCVYSATKTSVSFLQVTLKLNEGFNLMVLSIFILLNSTLLWQLLTKLLFGELRLIEHEHIFERLPFTIINTLFMSSLFHERYFFTVAFFGLLLLYLKVFHWILKDRLEALLQSINDSTTMKTLIFSRFSFNLVLLAVVDYQIITRCISSIYTNQKSDIESTSLYLIQVMEFTMLLIDLLNLFLQTCLNFWEFYRSQQSLSNENNHIVHGDPTDENTVESDQSQPVLNDDDDDDDDDRQFTGLEGKFMYEKAIDVFTRFLKTALHLSMLIPFRMPMMLLKDVVWDILALYQSGTSLWKIWRNNKQLDDTLVTVTVEQLQNSANDDNICIICMDELIHSPNQQTWKNKNKKPKRLPCGHILHLSCLKNWMERSQTCPISRLPVFDEKGNVVQTTFTSNSDITTQTTVTDSTGIATDQQGFANEVDLLPTRTTSPDIRIVPTQNIDTLAMRTRSTSTPSPTWYTFPLHKTGDNSVGSSRSAYEFLITNSDEKENGIPVKLTIENHEVNSLHGDGGEQIAKKIVIPDKFIQHI [C399S] | decreasing interaction
